The results in this text go back to patent publication EP4810052A2 (Gubra A/S, dated 2026).

What all share (assay): cell-based or functional assay
The target of assay [1] is T1, human corticotropin-releasing hormone receptor 1 (human, UniProt P34998 24-415).
T1 sequence (looked up): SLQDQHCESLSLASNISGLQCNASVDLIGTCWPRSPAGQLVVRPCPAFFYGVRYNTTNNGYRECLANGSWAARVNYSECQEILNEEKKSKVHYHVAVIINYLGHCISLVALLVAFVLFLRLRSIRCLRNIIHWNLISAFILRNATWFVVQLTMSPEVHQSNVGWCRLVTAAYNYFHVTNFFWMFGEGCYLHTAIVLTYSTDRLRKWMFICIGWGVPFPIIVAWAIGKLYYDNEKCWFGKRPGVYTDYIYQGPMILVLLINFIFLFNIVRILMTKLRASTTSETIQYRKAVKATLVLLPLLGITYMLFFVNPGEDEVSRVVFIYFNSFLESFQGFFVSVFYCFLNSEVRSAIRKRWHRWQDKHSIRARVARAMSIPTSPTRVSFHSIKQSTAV

Assay [2] has as its target T1, human corticotropin-releasing hormone …. This is another data set of the same source.
The target in assay [3] is T2, mouse CRH receptor 1 (mouse, UniProt P35347 24-415).
T2 sequence (looked up): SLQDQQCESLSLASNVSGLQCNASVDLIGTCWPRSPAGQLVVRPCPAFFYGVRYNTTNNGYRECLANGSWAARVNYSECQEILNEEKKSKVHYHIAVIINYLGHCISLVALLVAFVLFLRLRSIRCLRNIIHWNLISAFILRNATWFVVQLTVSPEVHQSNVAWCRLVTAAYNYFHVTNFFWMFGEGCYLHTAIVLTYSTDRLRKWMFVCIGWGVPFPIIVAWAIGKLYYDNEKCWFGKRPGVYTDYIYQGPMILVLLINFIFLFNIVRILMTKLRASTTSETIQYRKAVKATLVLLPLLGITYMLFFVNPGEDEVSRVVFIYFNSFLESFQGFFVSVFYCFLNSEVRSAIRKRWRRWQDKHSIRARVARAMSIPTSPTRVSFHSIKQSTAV

Assay [4] concerns the target T3, rat CRH receptor 1 (rat, UniProt P35353 24-415).
T3 sequence (looked up): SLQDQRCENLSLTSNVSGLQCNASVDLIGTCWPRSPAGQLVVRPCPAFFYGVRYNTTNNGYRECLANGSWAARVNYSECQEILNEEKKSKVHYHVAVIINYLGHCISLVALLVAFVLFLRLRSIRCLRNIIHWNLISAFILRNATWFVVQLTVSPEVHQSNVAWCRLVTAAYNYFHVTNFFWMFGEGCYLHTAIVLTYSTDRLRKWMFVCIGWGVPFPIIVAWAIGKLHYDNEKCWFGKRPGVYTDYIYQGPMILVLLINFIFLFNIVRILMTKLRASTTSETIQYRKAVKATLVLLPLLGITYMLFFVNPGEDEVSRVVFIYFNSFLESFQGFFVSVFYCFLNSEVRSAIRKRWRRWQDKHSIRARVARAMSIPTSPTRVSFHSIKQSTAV

The target of assay [5] is porcine CRH receptor 1 (pig).
The target in assay [6] is T1, human corticotropin-releasing hormone …. The source holds these as a separate data set.
For assay [7] the target is unchanged. This is another data set of the same source.

Read-outs that look alike come from different tables or passages of the source. Starred links: 1 amine or outer side, 2 acyl side, 3 side chain; linkers in the order of their positions; H or OH if unused. Non-standard residues stand in square brackets, D forms with d. Groups on a side chain read outwards from the residue. No end group written: not given here. *: point of attachment. C20 diacid = O=C(O)CCCCCCCCCCCCCCCCCCC(=O)*; γGlu = O=C(O)[C@H](CCC(=O)[*:2])N[*:1]; NMeI = CC[C@H](C)[C@H](NC)C(=O)O; Nle = CCCC[C@H](N)C(=O)O; lip = not defined here; AEEA = NCCOCCOCC(=O)O; Aib = CC(C)(N)C(=O)O

B1: SEQ ID NO: 6, [MeI]VLSLDVPIGLLQILLEQARARAAREQAT[K*]NAEILAEV(NH2) (peptide)
peptide: [NMeI]VLSLDVPIGLLQILLEQARARAAREQATKNAEILAEV-NH2
modifications: not fully specified (residue 30); printed as [MeI]VLSLDVPIGLLQILLEQARARAAREQAT[K*]NAEILAEV(NH_2); also: lipid and spacer on Lys30 not given here
In the case of B1, the “hCRHR1 EC50 (nM); HTRF cAMP assay, CHO-K1 cells stably expressing hCRHR1” value (shortened to “hCRHR1 EC50 (nM); HTRF cAMP assay”) in assay [1] and in assay [2] was over 5000 nM in each case. The “Transient cell system EC50 (nM), mCRHR1; cAMP assay, transiently transfected CHO-K1 cells” value (“Transient cell system EC50 (nM), mCRHR1” for short) in assay [3] turned out to be 71 nM. Further, the “Transient cell system EC50 (nM), rCRHR1; cAMP assay, transiently transfected CHO-K1 cells” value (from here on “Transient cell system EC50 (nM), rCRHR1”) in assay [4] was determined as 275 nM. For the same molecule, the “Transient cell system EC50 (nM), pCRHR1; cAMP assay, transiently transfected CHO-K1 cells” value (from here on “Transient cell system EC50 (nM), pCRHR1”) in assay [5] was over 5000 nM. The “Stable EC50 (nM), hCRHR1; cAMP assay, stable CHO-K1 cells” value (from here on “Stable EC50 (nM), hCRHR1; cAMP assay”) in assay [6] is over 5000 nM. For the same molecule, the “Transient cell system EC50 (nM), hCRHR1; cAMP assay, transiently transfected CHO-K1 cells” value (shortened to “Transient cell system EC50 (nM), hCRHR1”) in assay [6] is over 1000 nM.

B2: SEQ ID NO: 16, [MeI]VLSLDVPIGLLQILLEQARARAAREQA[K*]TN[Aib]EILAEV(NH2) (peptide)
peptide: [NMeI]VLSLDVPIGLLQILLEQARARAAREQAK(lip)TN[Aib]EILAEV-NH2
modifications: reading uncertain; also: printed as [MeI]VLSLDVPIGLLQILLEQARARAAREQA[K*]TN[Aib]EILAEV(NH2)
With B2, in assay [2], the “hCRHR1 EC50 (nM); HTRF cAMP assay” value was over 5000 nM. In addition, the “Transient cell system EC50 (nM), mCRHR1” value in assay [3] is 76 nM. Also, the “Transient cell system EC50 (nM), rCRHR1” value in assay [4] stood at 256 nM. Also, in assay [5], the “Transient cell system EC50 (nM), pCRHR1” value is over 5000 nM. In assay [6], the “Stable EC50 (nM), hCRHR1; cAMP assay” value was over 5000 nM and the “Transient cell system EC50 (nM), hCRHR1” value is over 1000 nM.

B3: SEQ ID NO: 238, PVLSLDVPIGLLQILLSQARARAAREQA[K*][Aib]NAEI[Nle]AEV(NH2) (peptide)
peptide: PVLSLDVPIGLLQILLSQARARAAREQAK[Aib]NAEI[Nle]AEV-NH2
modifications: not fully specified (residue 29); printed as PVLSLDVPIGLLQILLSQARARAAREQA[K*][Aib]NAEI[Nle]AEV(NH_2); also: lipid and spacer on Lys29 not given here
Consider B3, for which, in assay [7], the “hCRHR1 EC50 (nM); HTRF cAMP assay” value was over 5000 nM. In assay [3], the “Transient cell system EC50 (nM), mCRHR1” value stood at 323 nM. In addition, in assay [4], the “Transient cell system EC50 (nM), rCRHR1” value was over 1000 nM. Besides, in assay [5], the “Transient cell system EC50 (nM), pCRHR1” value was over 5000 nM. In assay [6], the “Stable EC50 (nM), hCRHR1; cAMP assay” value was over 5000 nM and the “Transient cell system EC50 (nM), hCRHR1” value is over 5000 nM.
With IVLSLDVPIGLLQILLEQARARAAREQAK(lip)TNAEILAEV-NH2 (not fully specified; reading uncertain) [SEQ ID NO: 3 (Lipidated UCN2 with X^36 = E; X^40 = E) (reference 1)], the “hCRHR1 EC50 (nM); HTRF cAMP assay” value in assay [7], in assay [1] and in assay [2] was over 5000 nM in each case. In addition, in assay [3], the “Transient cell system EC50 (nM), mCRHR1” value was found to be 44 nM. The “Transient cell system EC50 (nM), rCRHR1” value in assay [4] amounted to 163 nM. For the same molecule, in assay [5], the “Transient cell system EC50 (nM), pCRHR1” value was over 5000 nM. In addition, the “Stable EC50 (nM), hCRHR1; cAMP assay” value in assay [6] is over 5000 nM. Further, the “Transient cell system EC50 (nM), hCRHR1” value in assay [6] was over 1000 nM.

B4: SEQ ID NO: 215, [MeI]VLSLDVPIGLLQILLSQARARAAREQA[K*]TN[Aib]EI[Nle]AEV(NH2) (peptide)
peptide: [NMeI]VLSLDVPIGLLQILLSQARARAAREQAK([AEEA-AEEA-γGlu-γGlu-C20 diacid])TN[Aib]EI[Nle]AEV-NH2
modifications: not fully specified; printed as [MeI]VLSLDVPIGLLQILLSQARARAAREQA[K*]TN[Aib]EI[Nle]AEV(NH_2)
On to B4, for which the “hCRHR1 EC50 (nM); HTRF cAMP assay” value in assay [7] was over 5000 nM. Besides, in assay [3], the “Transient cell system EC50 (nM), mCRHR1” value stood at 50 nM. The “Transient cell system EC50 (nM), rCRHR1” value in assay [4] came out at 175 nM. Also, the “Transient cell system EC50 (nM), pCRHR1” value in assay [5] is over 1000 nM. In addition, in assay [6], the “Stable EC50 (nM), hCRHR1; cAMP assay” value is over 5000 nM and the “Transient cell system EC50 (nM), hCRHR1” value was 826 nM.
